Test: First-order nonenzymatic deamidation of pentapeptides in Tris buffer
Type: physicochemical
Conditions: pH 7.4, 37.0° C., 0.15 M Tris HCl; Asn pentapeptides
Method in brief: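 Pentapeptides containing Asn or Gln in varied flanking sequences incubated at 37° C., pH 7.4, 0.15 M Tris buffer; first-order deamidation rates measured. Some Asn values estimated from remaining data; many Gln values derived from surface fitting rather than measured.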

In order of rising “First-Order Deamidation Halftimes of GlyXxxAsnYyyGly” value:
1. GlyAlaAsnGlyGly (GANGG; printed: GlyAlaAsnGlyGly)  1.05 days
2. GlyLeuAsnGlyGly (GLNGG; printed: GlyLeuAsnGlyGly)  1.08 days
3. GlyAspAsnHisGly (GDNHG; printed: GlyAspAsnHisGly)  9.7 days
4. GlyArgAsnHisGly (GRNHG; printed: GlyArgAsnHisGly)  10.0 days
5. GlyTyrAsnHisGly (GYNHG; printed: GlyTyrAsnHisGly)  10.2 days
6. GlyMetAsnSerGly (GMNSG; printed: GlyMetAsnSerGly)  15.2 days
7. GlyLeuAsnSerGly (GLNSG; printed: GlyLeuAsnSerGly)  16.7 days
8. GlyAlaAsnAlaGly (GANAG; printed: GlyAlaAsnAlaGly)  22.5 days
9. GlyPheAsnAlaGly (GFNAG; printed: GlyPheAsnAlaGly)  24.2 days
10. GlyTyrAsnAlaGly (GYNAG; printed: GlyTyrAsnAlaGly)  24.3 days
11. GlyLeuAsnAlaGly (GLNAG; printed: GlyLeuAsnAlaGly)  25.1 days
12. GlyCysAsnAlaGly (GCNAG; printed: GlyCysAsnAlaGly)  26.4 days
13. GlyGluAsnAspGly (GENDG; printed: GlyGluAsnAspGly)  32.0 days
14. GlyGluAsnAmCysGly  32.1 days
15. GlyLysAsnAmCysGly  36.5 days
16. GlyTrpAsnThrGly (GWNTG; printed: GlyTrpAsnThrGly)  38.9 days
17. GlyTrpAsnAmCysGly  42.9 days
18. GlyPheAsnCysGly (GFNCG; printed: GlyPheAsnCysGly)  46.5 days
19. GlyCysAsnLysGly (GCNKG; printed: GlyCysAsnLysGly)  46.6 days
20. GlyTyrAsnCysGly (GYNCG; printed: GlyTyrAsnCysGly)  48.6 days
21. GlyArgAsnThrGly (GRNTG; printed: GlyArgAsnThrGly)  50.7 days
22. GlyThrAsnArgGly (GTNRG; printed: GlyThrAsnArgGly)  51.2 days
23. GlyLysAsnArgGly (GKNRG; printed: GlyLysAsnArgGly)  57.4 days
24. GlyIleAsnGluGly (GINEG; printed: GlyIleAsnGluGly)  58.6 days
25. GlyPheAsnGluGly (GFNEG; printed: GlyPheAsnGluGly)  62.4 days
26. GlyIleAsnLysGly (GINKG; printed: GlyIleAsnLysGly)  64.4 days
27. GlyArgAsnArgGly (GRNRG; printed: GlyArgAsnArgGly)  67.4 days
28. GlyPheAsnPheGly (GFNFG; printed: GlyPheAsnPheGly)  69.5 days
29. GlyAspAsnPheGly (GDNFG; printed: GlyAspAsnPheGly)  70.1 days
30. GlyLysAsnPheGly (GKNFG; printed: GlyLysAsnPheGly)  70.1 days
31. GlyTrpAsnPheGly (GWNFG; printed: GlyTrpAsnPheGly)  71.1 days
32. GlyLysAsnGluGly (GKNEG; printed: GlyLysAsnGluGly)  72.5 days
33. GlyCysAsnPheGly (GCNFG; printed: GlyCysAsnPheGly)  73.9 days
34. GlyCysAsnArgGly (GCNRG; printed: GlyCysAsnArgGly)  83.1 days
35. GlySerAsnLeuGly (GSNLG; printed: GlySerAsnLeuGly)  110 days
36. GlyValAsnLeuGly (GVNLG; printed: GlyValAsnLeuGly)  154 days
37. GlyPheAsnValGly (GFNVG; printed: GlyPheAsnValGly)  203 days
38. GlyMetAsnValGly (GMNVG; printed: GlyMetAsnValGly)  211 days
39. GlyMetAsnIleGly (GMNIG; printed: GlyMetAsnIleGly)  275 days
40. GlyThrAsnIleGly (GTNIG; printed: GlyThrAsnIleGly)  279 days
41. GlyProAsnValGly (GPNVG; printed: GlyProAsnValGly)  364 days
42. GlyLeuAsnIleGly (GLNIG; printed: GlyLeuAsnIleGly)  391 days
43. GlyArgAsnProGly (GRNPG; printed: GlyArgAsnProGly)  5790 days

Same assay, conditions: pH 7.4, 37.0 ° C., 0.15 M Tris HCl; Gln pentapeptides; 52 values measured, rest derived from surface fitting

In order of falling “First-Order Deamidation Halftimes of GlyXxxGlnYyyGly” value:
1. GlyGlyGlnTrpGly (GGQWG; printed: GlyGlyGlnTrpGly)  15000 days
2. GlyAspGlnTyrGly (GDQYG; printed: GlyAspGlnTyrGly)  13000 days
3. GlyGluGlnTyrGly (GEQYG; printed: GlyGluGlnTyrGly)  13000 days
4. GlyAspGlnProGly (GDQPG; printed: GlyAspGlnProGly)  11000 days
5. GlyHisGlnPheGly (GHQFG; printed: GlyHisGlnPheGly)  8600 days
6. GlyTyrGlnIleGly (GYQIG; printed: GlyTyrGlnIleGly)  7900 days
7. GlyMetGlnProGly (GMQPG; printed: GlyMetGlnProGly)  7300 days
8. GlyProGlnAspGly (GPQDG; printed: GlyProGlnAspGly)  7200 days
9. GlyThrGlnPheGly (GTQFG; printed: GlyThrGlnPheGly)  6800 days
10. GlyGlyGlnValGly (GGQVG; printed: GlyGlyGlnValGly)  6500 days
11. GlyProGlnArgGly (GPQRG; printed: GlyProGlnArgGly)  6400 days
12. GlyThrGlnAspGly (GTQDG; printed: GlyThrGlnAspGly)  6300 days
13. GlyGlyGlnIleGly (GGQIG; printed: GlyGlyGlnIleGly)  6300 days
14. GlyIleGlnHisGly (GIQHG; printed: GlyIleGlnHisGly)  6100 days
15. GlyIleGlnSerGly (GIQSG; printed: GlyIleGlnSerGly)  5800 days
16. GlyTyrGlnThrGly (GYQTG; printed: GlyTyrGlnThrGly)  5600 days
17. GlyArgGlnIleGly (GRQIG; printed: GlyArgGlnIleGly)  5500 days
18. GlyProGlnLysGly (GPQKG; printed: GlyProGlnLysGly)  5500 days
19. GlyThrGlnLeuGly (GTQLG; printed: GlyThrGlnLeuGly)  5200 days
20. GlyMetGlnValGly (GMQVG; printed: GlyMetGlnValGly)  5000 days
21. GlyCysGlnValGly (GCQVG; printed: GlyCysGlnValGly)  5000 days
22. GlyCysGlnIleGly (GCQIG; printed: GlyCysGlnIleGly)  4900 days
23. GlyMetGlnLysGly (GMQKG; printed: GlyMetGlnLysGly)  4600 days
24. GlyCysGlnLysGly (GCQKG; printed: GlyCysGlnLysGly)  4400 days
25. GlyThrGlnAlaGly (GTQAG; printed: GlyThrGlnAlaGly)  4300 days
26. GlyThrGlnSerGly (GTQSG; printed: GlyThrGlnSerGly)  4200 days
27. GlyArgGlnMetGly (GRQMG; printed: GlyArgGlnMetGly)  4100 days
28. GlyLysGlnLysGly (GKQKG; printed: GlyLysGlnLysGly)  4000 days
29. GlyGlyGlnCysGly (GGQCG; printed: GlyGlyGlnCysGly)  1900 days
30. GlyGlyGlnGlyGly (GGQGG; printed: GlyGlyGlnGlyGly)  650 days
